Values quoted from earlier work as cited in US5550213A, “Inhibitors of urokinase plasminogen activator” (Rutgers, The State University of New Jersey, priority 1993, dated 1996).

Target: urokinase (UK) (Homo sapiens, UniProt P00749)
Conditions: from Turpeinen et al. (PSTI), Christensen et al. (PAI-2); serpin Ki not functionally comparable to reversible inhibitors; read-out: Ki (nM) against UK, values obtained from the literature

B1: PAI-2: placental type PA-inhibitor, a serpin, native inhibitor of urokinase (protein, UniProt P05120 1-415, looked up)
Plasminogen activator …: MEDLCVANTLFALNLFKHLAKASPTQNLFLSPWSISSTMAMVYMGSRGSTEDQMAKVLQFNEVGANAVTPMTPENFTSCGFMQQIQKGSYPDAILQAQAADKIHSSFRSLSSAINASTGNYLLESVNKLFGEKSASFREEYIRLCQKYYSSEPQAVDFLECAEEARKKINSWVKTQTKGKIPNLLPEGSVDGDTRMVLVNAVYFKGKWKTPFEKKLNGLYPFRVNSAQRTPVQMMYLREKLNIGYIEDLKAQILELPYAGDVSMFLLLPDEIADVSTGLELLESEITYDKLNKWTSKDKMAEDEVEVYIPQFKLEEHYELRSILRSMGMEDAFNKGRANFSGMSERNDLFLSEVFHQAMVDVNEEGTEAAAGTGGVMTGRTGHGGPQFVADHPFLFLIMHKITNCILFFGRFSSP
Q: Which Ki does the source give for B1 here?
A: The Ki was less than 0.01 nM.
